According to patent US6656716:

Assays:
[1] = molecular target: T1, PAK5 activation loop peptide # 3, (C)RRKSLVGTPYWMAPE, aa 471-485 (not fully specified)
T1 chain: CRRKSLVGTPYWMAPE

[2] = molecular target: T2, SULU1 activation loop peptide # 6, PANSFVGTPYWMAPE, aa 174-188 (not fully specified)
T2 chain: PANSFVGTPYWMAPE

[3] = molecular target: T3, KHS1 activation loop peptide # 4, KRKSFIGTPYWMAPE, aa 171-185 (not fully specified)
T3 chain: KRKSFIGTPYWMAPE

[4] = molecular target: T4, STLK4 activation loop peptide # 9, RNKVRKTFVGTPCWMAPE, aa 66-83 (not fully specified)
T4 chain: RNKVRKTFVGTPCWMAPE

[5] = molecular target: T5, PAK5 activation loop peptide # 2, (C)RRKSLVGTPYWMAPE, aa 471-485
T5 chain: CRRKSLVGTPYWMAPE

[6] = molecular target: T6, ZC1 activation loop peptide # 8, RRNTFIGTPYWMAPE, aa 184-198 (SEQ ID 126)
T6 chain: RRNTFIGTPYWMAPE

[7] = molecular target: T7, PAK5 activation loop peptide # 1, (C)RRKSLVGTPYWMAPE, aa 471-485
T7 chain: CRRKSLVGTPYWMAPE

[8] = molecular target: T8, STLK2 activation loop peptide # 5, KRNTFVGTPFWMAPE, aa 175-189 (not fully specified)
T8 chain: KRNTFVGTPFWMAPE

[9] = molecular target: T9, ZC1 activation loop peptide # 7, RRNTFIGTPYWMAPE, aa 184-198 (SEQ ID 125) (not fully specified)
T9 chain: RRNTFIGTPYWMAPE

B1: human PAK5 (protein)
chain: MFGKRKKRVEISAPSNFEHRVHTGFDQHEQKFTGLPRQWQSLIEESARRPKPLVDPACITSIQPGAPKTIVRGSKGAKDGALTLLLDEFENMSVTRSNSLRRDSPPPPARARQENGMPEEPATTARGGPGKAGSRGRFAGHSEAGGGSGDRRRAGPEKRPKSSREGSGGPQESSRDKRPLSGPDVGTPQPAGLASGAKLAAGRPFNTYPRADTDHPSRGAQGEPHDVAPNGPSAGGLAIPQSSSSSSRPPTRARGAPSPGVLGPHASEPQLAPPACTPAAPAVPGPPGPRSPQREPQRVSHEQFRAALQLVVDPGDPRSYLDNFIKIGEGSTGIVCIATVRSSGKLVAVKKMDLRKQQRRELLFNEVVIMRDYQHENVVEMYNSYLVGDELWVVMEFLEGGALTDIVTHTRMNEEQIAAVCLAVLQALSVLHAQGVIHRDIKSDSILLTHDGRVKLSDFGFCAQVSKEVPRRKSLVGTPYWMAPELISRLPYGPEVDIWSLGIMVIEMVDGEPPYFNEPPLKAMKMIRDNLPPRLKNLHKVSPSLKGFLDRLLVRDPAQRATAAELLKHPFLAKAGPPASIVPLMRQNRTR
substrate (in vitro kinase assay) [1]: no | substrate (in vitro kinase assay) [2]: poor | substrate (in vitro kinase assay) [3]: yes | substrate (in vitro kinase assay) [4]: poor | Km [5]: High Km for PAK5 (1-10 µM) | substrate (in vitro kinase assay) [5]: yes | substrate (in vitro kinase assay) [6]: poor | substrate (in vitro kinase assay), note [6]: Better than 7 | substrate (in vitro kinase assay) [7]: yes | substrate (in vitro kinase assay), note [7]: Equally well as MBB | substrate (in vitro kinase assay) [8]: poor | substrate (in vitro kinase assay) [9]: poor
